Source: IntAct's records for PubMed 35512704

B1: Speckle-type POZ protein (Homo sapiens), O43791 (parent)
chain: MSRVPSPPPPAEMSSGPVAESWCYTQIKVVKFSYMWTINNFSFCREEMGEVIKSSTFSSGANDKLKWCLRVNPKGLDEESKDYLSLYLLLVSCPKSEVRAKFKFSILNAKGEETKAMESQRAYRFVQGKDWGFKKFIRRDFLLDEANGLLPDDKLTLFCEVSVVQDSVNISGQNTMNMVKVPECRLADELGGLWENSRFTDCCLCVAGQEFQAHKAILAARSPVFSAMFEHEMEESKKNRVEINDVEPEVFKEMMCFIYTGKAPNLDKMADDLLAAADKYALERLKVMCEDALCSNLSVENAAEILILADLHSADQLKTQAVDFINYHASDVLETSGWKSMVVSHPHLVAEAYRSLASAQCPFLGPPRKRLKQS
partner: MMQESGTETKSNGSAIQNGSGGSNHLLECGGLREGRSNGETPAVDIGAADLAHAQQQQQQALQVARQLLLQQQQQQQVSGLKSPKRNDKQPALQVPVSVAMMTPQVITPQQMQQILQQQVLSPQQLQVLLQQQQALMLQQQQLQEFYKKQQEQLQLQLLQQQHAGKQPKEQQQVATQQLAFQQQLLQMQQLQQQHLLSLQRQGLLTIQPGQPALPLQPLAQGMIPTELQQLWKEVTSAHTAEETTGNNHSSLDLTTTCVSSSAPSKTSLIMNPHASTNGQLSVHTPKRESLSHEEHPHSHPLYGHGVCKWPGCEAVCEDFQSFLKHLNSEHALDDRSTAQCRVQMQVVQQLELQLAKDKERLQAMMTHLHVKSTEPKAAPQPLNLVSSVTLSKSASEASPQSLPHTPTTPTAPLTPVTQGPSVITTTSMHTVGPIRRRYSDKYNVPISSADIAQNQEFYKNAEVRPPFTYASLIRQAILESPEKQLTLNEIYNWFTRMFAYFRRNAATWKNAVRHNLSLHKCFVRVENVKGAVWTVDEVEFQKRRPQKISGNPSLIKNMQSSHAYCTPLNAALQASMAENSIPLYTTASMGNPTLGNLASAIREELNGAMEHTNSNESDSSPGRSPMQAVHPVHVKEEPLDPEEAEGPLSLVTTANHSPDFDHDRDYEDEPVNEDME
B2: Speckle-type POZ protein (Homo sapiens), O43791 (parent)
chain: B1 chain
partner: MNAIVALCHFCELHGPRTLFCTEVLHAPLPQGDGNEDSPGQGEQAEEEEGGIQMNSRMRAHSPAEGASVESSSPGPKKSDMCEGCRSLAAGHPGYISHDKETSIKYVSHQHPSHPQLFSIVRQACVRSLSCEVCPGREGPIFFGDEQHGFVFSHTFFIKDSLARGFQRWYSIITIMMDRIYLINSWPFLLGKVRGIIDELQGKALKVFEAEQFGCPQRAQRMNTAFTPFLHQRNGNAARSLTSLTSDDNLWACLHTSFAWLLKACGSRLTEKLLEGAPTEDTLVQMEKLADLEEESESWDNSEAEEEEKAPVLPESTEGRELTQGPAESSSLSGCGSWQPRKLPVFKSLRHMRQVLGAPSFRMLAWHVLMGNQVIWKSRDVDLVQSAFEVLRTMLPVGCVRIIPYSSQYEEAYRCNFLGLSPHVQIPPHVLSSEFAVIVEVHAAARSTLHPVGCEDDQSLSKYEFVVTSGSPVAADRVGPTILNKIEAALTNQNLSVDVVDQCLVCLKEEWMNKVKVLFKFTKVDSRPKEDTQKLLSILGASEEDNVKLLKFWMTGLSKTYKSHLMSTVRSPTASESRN
B3: Speckle-type POZ protein (Homo sapiens), O43791 (parent)
chain: B1 chain
partner: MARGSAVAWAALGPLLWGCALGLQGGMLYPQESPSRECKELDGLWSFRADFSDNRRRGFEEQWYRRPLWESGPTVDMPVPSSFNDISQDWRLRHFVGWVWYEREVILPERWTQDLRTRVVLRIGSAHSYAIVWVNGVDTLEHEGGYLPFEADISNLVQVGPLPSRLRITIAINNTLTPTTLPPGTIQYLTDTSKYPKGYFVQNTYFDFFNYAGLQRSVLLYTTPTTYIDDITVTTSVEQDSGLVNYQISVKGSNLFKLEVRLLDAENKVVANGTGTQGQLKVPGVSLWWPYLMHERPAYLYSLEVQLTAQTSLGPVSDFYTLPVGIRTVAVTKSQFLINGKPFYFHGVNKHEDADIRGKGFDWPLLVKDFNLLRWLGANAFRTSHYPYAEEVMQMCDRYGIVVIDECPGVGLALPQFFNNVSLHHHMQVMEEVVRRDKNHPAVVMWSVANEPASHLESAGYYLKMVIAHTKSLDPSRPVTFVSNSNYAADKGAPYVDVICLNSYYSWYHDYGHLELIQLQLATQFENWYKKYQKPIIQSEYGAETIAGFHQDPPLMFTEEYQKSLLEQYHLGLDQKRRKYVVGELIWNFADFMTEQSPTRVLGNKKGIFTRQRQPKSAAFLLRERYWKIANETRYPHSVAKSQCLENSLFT

Variants of: B1
Details: with foxp1_human FOXP1, Q9H334

Variant	effect of a mutation on the interaction
MSRVPSPPPPAEMSSGPVAESWCYTQIKVVKFSYMWTINNFSFCREEMGEVIKSSTFSSGANDKLKWCLRVNPKGLDEESKDYLSLCLLLVSCPKSEVRAKFKFSILNAKGEETKAMESQRAYRFVQGKDWGFKKFIRRDFLLDEANGLLPDDKLTLFCEVSVVQDSVNISGQNTMNMVKVPECRLADELGGLWENSRFTDCCLCVAGQEFQAHKAILAARSPVFSAMFEHEMEESKKNRVEINDVEPEVFKEMMCFIYTGKAPNLDKMADDLLAAADKYALERLKVMCEDALCSNLSVENAAEILILADLHSADQLKTQAVDFINYHASDVLETSGWKSMVVSHPHLVAEAYRSLASAQCPFLGPPRKRLKQS [Y87C]	with no effect

Variants of: B1
Details: with foxp1_human FOXP1, Q9H334
Remark: another data set of the same source

Variant	effect of a mutation on the interaction
MSRVPSPPPPAEMSSGPVAESWCYTQIKVVKFSYMWTINNFSFCREEMGEVIKSSTFSSGANDKLKWCLRVNPKGLDEESKDYLSLYLLLVSCPKSEVRAKFKFSILNAKGEETKAMESQRAYRFVQGKDWGLKKFIRRDFLLDEANGLLPDDKLTLFCEVSVVQDSVNISGQNTMNMVKVPECRLADELGGLWENSRFTDCCLCVAGQEFQAHKAILAARSPVFSAMFEHEMEESKKNRVEINDVEPEVFKEMMCFIYTGKAPNLDKMADDLLAAADKYALERLKVMCEDALCSNLSVENAAEILILADLHSADQLKTQAVDFINYHASDVLETSGWKSMVVSHPHLVAEAYRSLASAQCPFLGPPRKRLKQS [F133L]	with no effect

Variants of: B1
Details: with foxp1_human FOXP1, Q9H334
Remark: another data set of the same source

Variant	effect of a mutation on the interaction
MSRVPSPPPPAEMSSGPVAESWCYTQIKVVKFSYMWTINNFSFCREEMGEVIKSSTFSSGANDKLKWCLRVNPKGLDEESKDYLSLYLLLVSCPKSEVRAKFKFSILNAKGEETKAMESQRAYRFVQGKDWGVKKFIRRDFLLDEANGLLPDDKLTLFCEVSVVQDSVNISGQNTMNMVKVPECRLADELGGLWENSRFTDCCLCVAGQEFQAHKAILAARSPVFSAMFEHEMEESKKNRVEINDVEPEVFKEMMCFIYTGKAPNLDKMADDLLAAADKYALERLKVMCEDALCSNLSVENAAEILILADLHSADQLKTQAVDFINYHASDVLETSGWKSMVVSHPHLVAEAYRSLASAQCPFLGPPRKRLKQS [F133V]	causing an interaction

Variants of: B2
Details: with flcn_human FLCN

Variant	effect of a mutation on the interaction
MSRVPSPPPPAEMSSGPVAESWCYTQIKVVKFSYMWTINNFSFCREEMGEVIKSSTFSSGANDKLKWCLRVNPKGLDEESKDYLSLCLLLVSCPKSEVRAKFKFSILNAKGEETKAMESQRAYRFVQGKDWGFKKFIRRDFLLDEANGLLPDDKLTLFCEVSVVQDSVNISGQNTMNMVKVPECRLADELGGLWENSRFTDCCLCVAGQEFQAHKAILAARSPVFSAMFEHEMEESKKNRVEINDVEPEVFKEMMCFIYTGKAPNLDKMADDLLAAADKYALERLKVMCEDALCSNLSVENAAEILILADLHSADQLKTQAVDFINYHASDVLETSGWKSMVVSHPHLVAEAYRSLASAQCPFLGPPRKRLKQS [Y87C]	with no effect

Variants of: B2
Details: with flcn_human FLCN
Remark: another data set of the same source

Variant	effect of a mutation on the interaction
MSRVPSPPPPAEMSSGPVAESWCYTQIKVVKFSYMWTINNFSFCREEMGEVIKSSTFSSGANDKLKWCLRVNPKGLDEESKDYLSLYLLLVSCPKSEVRAKFKFSILNAKGEETKAMESQRAYRFVQGKDWGVKKFIRRDFLLDEANGLLPDDKLTLFCEVSVVQDSVNISGQNTMNMVKVPECRLADELGGLWENSRFTDCCLCVAGQEFQAHKAILAARSPVFSAMFEHEMEESKKNRVEINDVEPEVFKEMMCFIYTGKAPNLDKMADDLLAAADKYALERLKVMCEDALCSNLSVENAAEILILADLHSADQLKTQAVDFINYHASDVLETSGWKSMVVSHPHLVAEAYRSLASAQCPFLGPPRKRLKQS [F133V]	with no effect

Variants of: B2
Details: with flcn_human FLCN
Remark: another data set of the same source

Variant	effect of a mutation on the interaction
MSRVPSPPPPAEMSSGPVAESWCYTQIKVVKFSYMWTINNFSFCREEMGEVIKSSTFSSGANDKLKWCLRVNPKGLDEESKDYLSLYLLLVSCPKSEVRAKFKFSILNAKGEETKAMESQRAYRFVQGKDWGLKKFIRRDFLLDEANGLLPDDKLTLFCEVSVVQDSVNISGQNTMNMVKVPECRLADELGGLWENSRFTDCCLCVAGQEFQAHKAILAARSPVFSAMFEHEMEESKKNRVEINDVEPEVFKEMMCFIYTGKAPNLDKMADDLLAAADKYALERLKVMCEDALCSNLSVENAAEILILADLHSADQLKTQAVDFINYHASDVLETSGWKSMVVSHPHLVAEAYRSLASAQCPFLGPPRKRLKQS [F133L]	with no effect

Variants of: B2
Details: with flcn_human FLCN
Remark: another data set of the same source

Variant	effect of a mutation on the interaction
MSRVPSPPPPAEMSSGPVAESWCYTQIKVVKFSYMWTINNFSFCREEMGEVIKSSTFSSGANDKLKWCLRVNPKGLDEESKDYLSLYLLLVSCPKSEVRAKCKFSILNAKGEETKAMESQRAYRFVQGKDWGFKKFIRRDFLLDEANGLLPDDKLTLFCEVSVVQDSVNISGQNTMNMVKVPECRLADELGGLWENSRFTDCCLCVAGQEFQAHKAILAARSPVFSAMFEHEMEESKKNRVEINDVEPEVFKEMMCFIYTGKAPNLDKMADDLLAAADKYALERLKVMCEDALCSNLSVENAAEILILADLHSADQLKTQAVDFINYHASDVLETSGWKSMVVSHPHLVAEAYRSLASAQCPFLGPPRKRLKQS [F102C]	with no effect

Variants of: B3
Details: with bglr_human GUSB

Variant	effect of a mutation on the interaction
MSRVPSPPPPAEMSSGPVAESWCYTQIKVVKFSYMWTINNFSFCREEMGEVIKSSTFSSGANDKLKWCLRVNPKGLDEESKDYLSLYLLLVSCPKSEVRAKCKFSILNAKGEETKAMESQRAYRFVQGKDWGFKKFIRRDFLLDEANGLLPDDKLTLFCEVSVVQDSVNISGQNTMNMVKVPECRLADELGGLWENSRFTDCCLCVAGQEFQAHKAILAARSPVFSAMFEHEMEESKKNRVEINDVEPEVFKEMMCFIYTGKAPNLDKMADDLLAAADKYALERLKVMCEDALCSNLSVENAAEILILADLHSADQLKTQAVDFINYHASDVLETSGWKSMVVSHPHLVAEAYRSLASAQCPFLGPPRKRLKQS [F102C]	with no effect
